Source: patent publication US10260068B2, “Prophylactic agent and therapeutic agent for fibrodysplasia ossificans progressiva” (Sumitomo Dainippon Pharma Co., Ltd., priority 2014, dated 2019)

T1: wild type ACVR1 (Homo sapiens, UniProt Q04771)
T1 construct: an iPS cell line with the ACVR1 gene mutation repaired to the normal type (wild type) by gene repair by a BAC knockin vector; endogenous in cells; host or cells: mesenchymal stem cell-like cells differentiated from the gene-corrected iPS cell clone
T1 sequence (Q04771 21-509): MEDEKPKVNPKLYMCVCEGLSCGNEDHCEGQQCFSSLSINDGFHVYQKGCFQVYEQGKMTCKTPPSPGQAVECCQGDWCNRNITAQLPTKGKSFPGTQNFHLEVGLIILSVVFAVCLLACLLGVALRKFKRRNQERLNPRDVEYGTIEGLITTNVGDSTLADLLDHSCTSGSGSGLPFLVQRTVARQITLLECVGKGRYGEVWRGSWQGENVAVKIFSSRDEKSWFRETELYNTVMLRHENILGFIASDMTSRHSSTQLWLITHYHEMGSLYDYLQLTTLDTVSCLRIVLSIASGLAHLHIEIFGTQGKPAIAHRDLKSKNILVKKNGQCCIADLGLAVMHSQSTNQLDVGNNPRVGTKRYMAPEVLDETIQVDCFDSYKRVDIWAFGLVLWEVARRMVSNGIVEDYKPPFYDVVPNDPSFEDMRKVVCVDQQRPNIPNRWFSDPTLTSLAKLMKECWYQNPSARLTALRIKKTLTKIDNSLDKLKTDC

B1: BMP-7: Recombinant Human BMP-7 (R&D Systems); cytokine of the BMP family (protein)
chain: STGSKQRSQNRSKTPKNQEALRMANVAENSSSDQRQACKKHELYVSFRDLGWQDWIIAPEGYAAYYCEGECAFPLNSYMNATNHAIVQTLVHFINPETVPKPCCAPTQLNAISVLYFDDSSNVILKKYRNMVVRACGCH

How the values were obtained:
SMAD1/5/8 = SMAD1/5/8 phosphorylation by Western blotting in gene-corrected clone derived cells; type: cell-based, human; details: 10 and 100 ng/mL activin A or 100 ng/mL BMP-7, 60 minutes
Experimental: Mesenchymal stem cell-like cells from a patient iPS cell line and a gene-corrected iPS cell clone were each prepared by the same method as Example 1. Culturing was conducted for 60 minutes with addition of 10 ng/mL and 100 ng/mL of human activin A or 100 ng/mL of human BMP-7 to the mesenchymal stem cell-like cells. The cells were then solubilized with 300 μL of a dissolving solution (70 mM Tris-HCl buffer solution, pH 6.8, 11.2% glycerol, 3% sodium dodecyl sulfate), and a cell extract was prepared. The amount of phosphorylated SMAD1/5/8 and the amount of total SMAD1/5/8 in the obtained cell extract were quantified by Western blotting. As the primary antibody for phosphorylated SMAD1/5/8 there was used rabbit anti-phosphorylated SMAD1/5/8 antibody [product of Cell Signaling Tech., trade name: Phospho-Smad1 (Ser463/465)/Smad5 (Ser463/465)/Smad8 (Ser426/428) Antibody (Rabbit)], and as the primary antibody for total SMAD1/5/8 there was used rabbit anti-total SMAD1/5/8 antibody [product of Santa Cruz Biotechnology, trade name: Smad1/5/8 Antibody (N-18)-R (Rabbit)]. The secondary antibody used was horseradish peroxidase conjugated anti-rabbit antibody (product of Cell Signaling Tech., trade name: Anti-rabbit IgG, HRP-linked Antibody). […]

wild type ACVR1 = biological target: T1, wild type ACVR1; experiment: ID1 gene promoter luciferase reporter in U2OS cells with transfer of wild type ACVR1; type: cell-based; details: 10 ng/mL, 20 hours
mutant ACVR1 = experiment: ID1 gene promoter luciferase reporter in U2OS cells with transfer of mutant ACVR1; type: cell-based, human; details: U2OS cells with transfer of each mutant ACVR1 of Table 1; 10 ng/mL, 20 hours
Experimental: A Firefly luciferase reporter plasmid having the promoter region of the ID1 gene, as a typical downstream gene of BMP (Genes Cells. 2002 September; 7(9):949-60), was mixed with a plasmid including different mutant ACVR1 genes reported to elicit FOP, and FuGene HD was used on U2OS cells for transfection. At 1 hour after transfection, human activin A (final concentration: 10 ng/mL) was added and the transfected cells were cultured for 20 hours. Next, the luciferase activity was measured according to the protocol provided with a Bright-Glo Luciferase Assay System (product of Promega Corp.). In FIG. 8, each sample name is listed according to Table 1 above, based on the amino acid mutation of ACVR1.

[1] = system: gene-corrected clone derived cells; experiment: Differentiation to chondrocytes (sulfated glycosaminoglycan assay) of gene-corrected clone derived cells; type: cell-based, human; details: 100 ng/mL BMP-7 or 1 ng/mL TGF-β3, 6 days, vs untreated group
Experimental: Mesenchymal stem cell-like cells from a patient iPS cell line and a gene-corrected iPS cell clone were each prepared by the same method as Example 1. The mesenchymal stem cell-like cells were cultured for 6 days under the medium conditions used in the method of Umeda et al. (Sci. Rep., 2012, 2, 455), for differentiation to chondrocytes. During differentiation, 100 ng/mL of human activin A, 100 ng/mL of human BMP-7 or 1 ng/mL of human TGF-β3 (product of R&D Systems, Inc., trade name: Recombinant Human TGF-beta 3) was added and the effect of each factor on differentiation to chondrocytes was examined. The extent of differentiation to chondrocytes was measured with Alcian blue dye and a sulfated glycosaminoglycan assay kit (product of Biocolor, Ltd., trade name: Blyscan Glycosaminoglycan Assay Kit). In FIG. 4, the bar graph indicates the mean values for each treated group, and the error bars represent S.D.

Molecule | phosphorylation of SMAD1/5/8 (SMAD1/5/8) | transcription activity via ACVR1 (ID1 gene promoter luciferase) (wild type ACVR1) | transcription activity via ACVR1 (ID1 gene promoter luciferase) (mutant ACVR1) | cartilage induction (sulfated glycosaminoglycan assay) [1]
human activin A: Recombinant Human/Mouse/Rat Activin A (R&D Systems); homodimer of inhibin βA chains | no phosphorylation of SMAD1/5/8 was induced | not observed | increased | –
B1 | occurred | – | – | significantly enhanced
